Reference: the nanobody polyreactivity screen of Harvey et al. (2022)

Test: yeast display, Sf9 membrane polyspecificity reagent, FACS + sequencing; frameworks hold sequencing errors
Procedure, shortened: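 Using colony PCR, genes from sorted yeast display clones were amplified, then sequenced on MiSeq at 2 × 250 and filtered by CDR length. The clones had been stained with 10% biotinylated, detergent-solubilized Sf9 membrane reagent for 1 hour at 4 °C and sorted by FACS into low and high (top ~1%) gates on anti-HA and streptavidin fluorescence. Polyreactivity labels come from the gate of origin.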

Sequence	polyreactivity (PSR sort gate)
QVQLVESGGGLVQAGGSLRLSCAASGSTFYKYAMGWYRQAPGKERELVASISRRAGSTYYADSVKGRFTISRDNAKNTVYLQMNSLKPEDTAVYYCAAVGRYDRVFDYDYWGQGTQVTVSS	high polyreactivity
QVQLVESGGGLVQAGGSHRLSCAASGRIFPSYAMGWYRQAPGKQRELVAAISKYGGRTYYADSVKGRFTISRDNAKNTVYLQMNSLKPEDTEVYYCAADGFRYYSWTRFSYYSGYDYWGQGSQVTVSS	high polyreactivity
QVQLVESGGGLVQAGGSLRLSCAASGITFDHYAMGWYRQAPGKEREFVAAIDDIGGDTYYADSVKGRFTISRDNAKNTVYLQMNSLKPEETAVYYCATDYPWIFGHFLMDYWGQGTQVTVSS	low polyreactivity
QVHLVESGGGLVQAGGSQRLSCAASGSIFKYYAKAWYRQQPGKERELVATITNGGNTNYADSVYGRFTISRDNPKKTVYLQRNSLKPEDTAVYYCAARLWCKRYSSPTSLQRYDYWRQGTQVTVSS	high polyreactivity
QVQLVESGGGLVQAGGSLRLTCAASGRTFYYYAMGWYRQAPGKERELVAAISRSGGSTYYADSVKGRFTISRDNSKNTVYLQMNSLKPEDTAVYYCAKVAITSSGYWRYDYWGQGTQVTVSS	high polyreactivity
QVQLVESGGGLVQAGGSLRLSCAASGYNFKPNTMGWYRQAPGKERELVAAITRGGRTKYADSVKGRFTISRDNAKNTVYLQMNSLKPEDTAVYYCATRVHKSTDGYDYWGQGTQVTVSS	high polyreactivity
RDQHVESGGGLVQAGGSLRLSCAASGRTFVPYAMGWYRQAPGKERELVAAISSGGDTNYADSVKGRFTISRDNAKNTVYLQMNSLKPEDTAVYYFAKDLTQIYYGDDYWGQGTQVTVSS	low polyreactivity
QVQLGESGGGLVQAGGSLRLSCAASGSIYVNAMGWYRQAPRKERELVAVISKSGGSTYYADSVKGRFTISRDNAKNTVYLQMNSLKPEETAVYYCAASRPSPGPRYGYWGQGTQVTVSS	high polyreactivity
QVQLVESGGGLVQAGGSLRLSCAASGFIFRVNAMGWYRQATGKERELVAAISASGGTTYYADSVKGRFTISRDIAKNTVYLQMNSLKPEDTAVYYCNAPSRTRYDYWGQGTQVTVSS	low polyreactivity
QVQLVESGGGLVQAGGSLRLSCAASGSIIAYNAMGWYRQAPGKERELVAAISYSGDGTYYADSVKGRFTISRDNANNTVYLQMNSLKPEDTAVYFCDTQIYPLVFYQGDWNDYWGQGTQVTVSS	low polyreactivity
QVQLVESGGGLVQAGGPLRVSCAASGIIFDYNAMGWYRQAPGKERELVAAITSTDNTNYADSVKGRFTISRDNAKNTVYLQKNCLKPEDTAVYYCAACSYSRYHYSLYFDFDYWGQGTQVTVSS	low polyreactivity
QVQLVESGGGLVQAGGSLRLSCAASGSTFPPYAMGWYRQAPGKERELVAAISNVGSTNYADSVKGRFTISRDNAKNTVYLQMNSLKPEETAVYYCAADFWERFALWGWIYLDYDYWGQGTQVTVSS	low polyreactivity
QVQLVESGGGLVQAGGSLRLSCAGSGSTFFEYAMGWYRQAPGKDREFVAGISWSGGITYYADSVKGRFTISRDNAKNTVYLQMNSLKPEDTAVYYCASAGGDWYGVDYWGQGTQVTVSS	low polyreactivity
QVQLVESGGGIVQAGGSLRLSCAASGRIFVGYAMVWYRQAPGKERELVAAISRGGSTNYADSVKGRFTISRDNAKNTVYLQMNSLKPEDTAVYYCAKTYRTRWWGNGGDFWGQGTQVTVSS	high polyreactivity
QVQLEESGRGLDQAGVSLRLSCAASVSTFAGYAMGWYRQAPVKERELVATITYSGGSTYYADSVKGRFTISRDNAKNTVYLQMNSLKPEDTAVYYCAKKASDWWGYEYWGQGTQVTVSS	low polyreactivity
QVHLLESGGGLVQAGGSLRLSCAASGRTFIRNAMGWYRQAPGKERELVASIRWSGGSTYYADSVKGRFTISRDNAKNTVYLQMNSLKPEDTAVYYCARRKQSFGSWPPSEPVADDYWGQGTQVTVSS	low polyreactivity
QVQLVESGGGLVQAGGSLRLSCAASGLILGVYTMGWYRQAPGKEREFVASINFGGGSTYYADSVKGRFTISRDNAKNTVYLQMNSLKPEDTAVYYCNARSLGGGTRLYSYDYWGQGTQVTVSS	low polyreactivity
QVQLVESGGGLVQAGGSLRLSCAAYGSTFGGNARGWYIQAPGKERELVAVISKRGGSTYYADSVKGRFTISRDYEKNTVYLQINSLKPEDTAVYYCAATYSRYWSPTYDYWGQGTQVTVSS	high polyreactivity
QVQLVESGGGLVQAGGSLRLTCAASGSTFVLYARGWYRQAPGKERELVAAITRRGGDTYYADSVKGRFTISRDNAKNTVYLQMNSLKPEDTAVYFCATDYTTYGRYDYWGHGTQVTVSS	low polyreactivity
QVQLVESGGGLVQAGGSLRLSCAASGRIFPFNAMGCYRQAPGKEREFVAAIRLSGTRTYYADSVKGRFTISRDNAKNTVYLQINSLKPDDTAVYYCAAKYSGHYYNYDYWGQGTQVTVSS	high polyreactivity
QVQLVESGGGLVQAGGSLRLICAASGSTFVPNAMGWYRQAPGKERELVAAITLSGVSTYYADSVKGRFTISRDNAKNTVYLQMNSLKPEETAVYYCAKDRPGWFHKYDYWGQGTQVTVSS	low polyreactivity
QVQLVESGGGLVQAGGSLLLSCAASGGTLRYYAMGWYRQAPGKEREFVASISRSGGSTYYADSVKGRFTISRDNAKNTVYLQMNSLKPEDTAVYYCAAYWSPGYTTRRGYWGQGTQVTVSS	high polyreactivity
QVQLVESGGGLVQAGGSLRLSCAASGRIFGYYVMGWYRQAPGQERELVARIRSGGNTYYADSVKGRFTISRDNAKNTVYLQMNSLKPEDTAVYYCNADPRTGWYKYDYWGQGTQVTVSS	high polyreactivity
QVQLVESGGGLVQAGGSLRLSCAASGYTFDGYAMGWYRQAPGKERELVAVITKSGGRKYYADSVKGRFTISRDNAKNTVYLQMNSLKREVTAVYYCAADDSGTKDIVEGEYWGQGTQVTVSS	high polyreactivity
QVQLVESGGGLVQAGGSLRLSCAASGLTFYGYGMGWYRQAPGKERELVASITSGGNTYYADSVKGRFTISRDNAKNTVYLKMNSLKPEDTAVYYCAVTAIALYYSSGYYWGQGTQVTVSS	low polyreactivity
QVQLVESGGGLVQAGGSLRLSCAASGSIFLLNAMGWYRQAPGKERELVAVISSGTGSTYYADSVKGRFTISRDTAKNTVYLQMNSLKPEDTAVYYCAAERDAVLFFVGPYYITLDYDYWGQGTQVTVSS	low polyreactivity
QVQLVESGRGLVQAGGSLRLSCAASGITFGYYAMGWSRQEPGKQSELVAAISFNGASTYYADSVKGRFTISRDNAKNTVYLQMNSMKPVDNAVYYCNRSTSYAQYFDVMDYWGQGTQVTVSS	low polyreactivity
QVQLVESGGGLVQAGGSLRLSCAASGSIFRKYAMGWYRQAPGKERELVAVITTDGSTNYADSVKGRFTISRDNAKNTVNLQMNSLKPEDSAVYYCNAVRSSIGTDNDFWGQGTLVTVSS	low polyreactivity
QVQLVESGGGLVQAGGSLRLSCAASGFTFRDNAMGWYRQAPGKERELVAAISKSGGTTYYADSVKGRFTISRDNAKNTVYLQMNSLKPEDTAVYYCNAVNRYSGHSYYWGQGTQVTVSS	low polyreactivity
QVQLVESGGGLVQAGGSLRLSCAASVSIFRWNTMGWYRQAPGKERELVASITFTGGRTYYADSVKGRFTISRDNAKNTVYLQMNSLKPEDTAVYYCNGLVVTYPKWKYDYWGQGTQVTVSS	high polyreactivity
